*1 amine or outer side, *2 acyl side, *3 side chain or, on linkers, in order; H or OH if unused. Where no end group is shown, it is not given here. Side-chain parts run from the residue outwards. [ ]: non-standard residue; d: D form. The star is where a group is joined. C20 diacid = O=C(O)CCCCCCCCCCCCCCCCCCC(=O)*; γGlu = O=C(O)[C@H](CCC(=O)[*:2])N[*:1]; εLys = N[C@@H](CCCCN[*:1])C(=O)[*:2]; NMeI = CC[C@H](C)[C@H](NC)C(=O)O; pGlu = O=C1CC[C@@H](C(=O)O)N1; αMeL = CC(C)C[C@](C)(N)C(=O)O; AEEA = NCCOCCOCC(=O)O; Aib = CC(C)(N)C(=O)O
What was measured:
Assay in all cases: cell-based or functional assay
[1] = target: T1, human corticotropin-releasing hormone receptor 1 (CRHR1) (human, UniProt P34998 24-415)
T1 sequence (looked up): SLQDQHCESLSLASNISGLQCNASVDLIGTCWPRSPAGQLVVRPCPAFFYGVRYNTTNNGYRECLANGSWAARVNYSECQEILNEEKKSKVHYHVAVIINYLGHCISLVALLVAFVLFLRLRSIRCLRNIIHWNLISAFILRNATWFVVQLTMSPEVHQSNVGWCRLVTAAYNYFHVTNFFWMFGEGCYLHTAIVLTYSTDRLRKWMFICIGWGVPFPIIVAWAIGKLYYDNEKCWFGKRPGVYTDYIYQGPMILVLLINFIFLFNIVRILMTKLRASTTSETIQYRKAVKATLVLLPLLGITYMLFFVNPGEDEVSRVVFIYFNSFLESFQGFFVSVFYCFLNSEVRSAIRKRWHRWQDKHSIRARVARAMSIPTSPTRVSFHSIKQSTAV

[2] = target: rat CRHR2 (endogenous on A7r5 cells) (rat, UniProt P47866 20-411)
[3] = target: T1, human corticotropin-releasing hormone …; remark: listed apart in the source

Sequence of rat CRHR2 (endogenous on A7r5 cells) (P47866 20-411): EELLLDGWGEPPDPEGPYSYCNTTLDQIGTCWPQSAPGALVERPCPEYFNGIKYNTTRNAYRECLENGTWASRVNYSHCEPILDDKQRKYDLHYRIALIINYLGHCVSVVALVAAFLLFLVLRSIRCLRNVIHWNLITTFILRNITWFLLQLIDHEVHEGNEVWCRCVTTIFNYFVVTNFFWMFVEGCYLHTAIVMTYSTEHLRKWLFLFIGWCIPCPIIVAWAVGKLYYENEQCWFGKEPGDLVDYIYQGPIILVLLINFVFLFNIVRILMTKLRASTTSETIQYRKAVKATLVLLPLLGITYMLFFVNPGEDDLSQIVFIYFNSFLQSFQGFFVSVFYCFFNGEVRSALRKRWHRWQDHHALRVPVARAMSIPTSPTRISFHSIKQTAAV

Ac-GSPSIVTS[αMeL]DVPT[Aib][αMeL]LQKILEQERAEKARQQAK([γGlu-AEEA-εLys-C20 diacid])EAAEILAQV-NH2 [polypeptide comprising SEQ ID NO:1]
Y79 cAMP EC50 [1]: 1.4 µM | A7r5 cAMP EC50 [2]: 157 pM | hCRHR1 cAMP EC50 [3]: > 10 µM

IVLSLDVPIGLLQILLEQARARAAREQATTNARILARV-NH2 (ligand) [Human urocortin-2 (UCN2)]
Y79 cAMP EC50 [1]: > 10 µM | hCRHR1 cAMP EC50 [3]: > 10 µM

[NMeI]VTSLDVPIG[αMeL]LQKLLEQERAEKARQQAKEAAEILAQV-NH2 (not fully specified (residue 29)) [polypeptide comprising SEQ ID NO:50]
Y79 cAMP EC50 [1]: > 10 µM | A7r5 cAMP EC50 [2]: 967 pM | hCRHR1 cAMP EC50 [3]: > 10 µM

[pGlu]GSPSGIVTS[αMeL]DVPT[Aib][αMeL]LQKILEQERAEKARQQAK([γGlu-AEEA-εLys-C20 diacid])EAAEILAQV-NH2 [polypeptide comprising SEQ ID NO:22]
Y79 cAMP EC50 [1]: 2.4 µM | A7r5 cAMP EC50 [2]: 314 pM | hCRHR1 cAMP EC50 [3]: > 10 µM

[NMeI]VLSLDVPIGLLQILLEQEKQEKEKQQAKTNAQILAQV-NH2 (not fully specified (residue 29)) [Reference compound SEQ ID NO:54]
Y79 cAMP EC50 [1]: 6 µM | A7r5 cAMP EC50 [2]: 471 pM | hCRHR1 cAMP EC50 [3]: > 10 µM
